According to US20160235855A1, “STABLE AQUEOUS PARENTERAL PHARMACEUTICAL COMPOSITIONS OF INSULINOTROPIC PEPTIDES” (SHANGHAI BENEMAE PHARMACEUTICAL CORPORATION, priority 2013, published 2016):

Experiment: HPLC analysis of GLP-1 on C18 column (chemical stability)
Type: physicochemical
Procedure: An investigation method for chemical stability: a test sample was taken, and analyzed on a C18 column (3.5 μm, 300 Å, φ 4.6×50 mm). An analytical method: mobile phase A was 0.1% trifluoroacetic acid, B was the A phase with 80% acetonitrile added therein, the detection wavelength was 280 nm, 60% A and 40% B were balanced for 3 min, and the sample amount was 2 to 5 μL. Elution was performed with linear gradient for 8 min with 40% to 53% of the B phase and 60% to 47% of the A phase. Peak area was calculated using the normalization method. A standard sample was determined with the same method. The peptide concentration in the sample was calculated by comparison with the standard sample, and compared with the determination result at day 0, to calculate the retention of the peptide content in the sample. A higher retention of the peptide content indicated better chemical stability.
The HPLC detection method was performed according to Example 1.
The formulation method and HPLC detection method of the pharmaceutical compositions were performed according to Example 5.

## Glucagon-like peptide 1 [GLP-1]
pH 3.0, NaCl 29.22 mg/mL, 45° C., 8 days
  Results of HPLC analysis, retention of the peptide content: 91.16%
pH 3.5, NaCl 0 mg/mL, 35° C., 8 days
  Results of HPLC analysis, retention of the peptide content: 94.73%
pH 3.5, NaCl 0 mg/mL, 45° C., 8 days
  Results of HPLC analysis, retention of the peptide content: 88.66%
pH 3.5, NaCl 1.17 mg/mL, 35° C., 8 days
  Results of HPLC analysis, retention of the peptide content: 96.92%
pH 3.5, NaCl 1.17 mg/mL, 45° C., 8 days
  Results of HPLC analysis, retention of the peptide content: 92.54%
pH 3.5, NaCl 8.77 mg/mL, 35° C., 8 days
  Results of HPLC analysis, retention of the peptide content: 98.06%
pH 3.5, NaCl 8.77 mg/mL, 45° C., 8 days
  Results of HPLC analysis, retention of the peptide content: 92.90%
pH 3.6, NaCl below 20 mmol/L, 25° C., 30 days
  Results of HPLC analysis, retention of the peptide content: 93.04%
pH 3.6, NaCl below 20 mmol/L, 35° C., 30 days
  Results of HPLC analysis, retention of the peptide content: 86.25%
pH 3.7, NaCl below 20 mmol/L, 25° C., 30 days
  Results of HPLC analysis, retention of the peptide content: 95.15%
pH 3.7, NaCl below 20 mmol/L, 35° C., 30 days
  Results of HPLC analysis, retention of the peptide content: 86.11%
pH 3.8, NaCl below 20 mmol/L, 25° C., 30 days
  Results of HPLC analysis, retention of the peptide content: 97.10%
pH 3.8, NaCl below 20 mmol/L, 35° C., 30 days
  Results of HPLC analysis, retention of the peptide content: 89.48%
pH 3.9, NaCl below 20 mmol/L, 25° C., 30 days
  Results of HPLC analysis, retention of the peptide content: 98.08%
pH 3.9, NaCl below 20 mmol/L, 35° C., 30 days
  Results of HPLC analysis, retention of the peptide content: 90.36%
pH 4.0, NaCl 0 mg/mL, 35° C., 8 days
  Results of HPLC analysis, retention of the peptide content: 96.07%
pH 4.0, NaCl 0 mg/mL, 45° C., 8 days
  Results of HPLC analysis, retention of the peptide content: 92.77%
pH 4.0, NaCl 1.17 mg/mL, 35° C., 8 days
  Results of HPLC analysis, retention of the peptide content: 97.43%
pH 4.0, NaCl 1.17 mg/mL, 45° C., 8 days
  Results of HPLC analysis, retention of the peptide content: 93.76%
pH 4.0, NaCl 8.77 mg/mL, 35° C., 8 days
  Results of HPLC analysis, retention of the peptide content: 98.73%
pH 4.0, NaCl 8.77 mg/mL, 45° C., 8 days
  Results of HPLC analysis, retention of the peptide content: Turbid
pH 4.0, NaCl below 20 mmol/L, 25° C., 30 days
  Results of HPLC analysis, retention of the peptide content: 97.85%
pH 4.0, NaCl below 20 mmol/L, 35° C., 30 days
  Results of HPLC analysis, retention of the peptide content: 91.80%
pH 4.1, NaCl below 20 mmol/L, 25° C., 30 days
  Results of HPLC analysis, retention of the peptide content: 98.90%
pH 4.1, NaCl below 20 mmol/L, 35° C., 30 days
  Results of HPLC analysis, retention of the peptide content: 91.35%
pH 4.2, NaCl below 20 mmol/L, 25° C., 30 days
  Results of HPLC analysis, retention of the peptide content: 98.24%
pH 4.2, NaCl below 20 mmol/L, 35° C., 30 days
  Results of HPLC analysis, retention of the peptide content: 93.96%
pH 4.5, NaCl 0 mg/mL, 35° C., 8 days
  Results of HPLC analysis, retention of the peptide content: 97.23%
pH 4.5, NaCl 0 mg/mL, 45° C., 8 days
  Results of HPLC analysis, retention of the peptide content: 92.45%
pH 4.5, NaCl 1.17 mg/mL, 35° C., 8 days
  Results of HPLC analysis, retention of the peptide content: 95.29%
pH 4.5, NaCl 1.17 mg/mL, 45° C., 8 days
  Results of HPLC analysis, retention of the peptide content: Turbid
pH 4.5, NaCl 8.77 mg/mL, 35° C., 8 days
  Results of HPLC analysis, retention of the peptide content: Turbid
pH 4.5, NaCl 8.77 mg/mL, 45° C., 8 days
  Results of HPLC analysis, retention of the peptide content: Turbid
pH 7.0, NaCl 0 mg/mL, 35° C., 8 days
  Results of HPLC analysis, retention of the peptide content: 94.30%
pH 7.0, NaCl 0 mg/mL, 45° C., 8 days
  Results of HPLC analysis, retention of the peptide content: 88.83%
pH 7.0, NaCl 1.17 mg/mL, 35° C., 8 days
  Results of HPLC analysis, retention of the peptide content: 93.35%
pH 7.0, NaCl 1.17 mg/mL, 45° C., 8 days
  Results of HPLC analysis, retention of the peptide content: 90.43%
pH 7.0, NaCl 8.77 mg/mL, 35° C., 8 days
  Results of HPLC analysis, retention of the peptide content: 94.34%
pH 7.0, NaCl 8.77 mg/mL, 45° C., 8 days
  Results of HPLC analysis, retention of the peptide content: 92.79%
pH 7.0, NaCl 29.22 mg/mL, 35° C., 8 days
  Results of HPLC analysis, retention of the peptide content: 95.83%
pH 7.0, NaCl 29.22 mg/mL, 45° C., 8 days
  Results of HPLC analysis, retention of the peptide content: 95.37%
pH 7.0 to 7.5
  chemical stability: poor
pH 7.5, NaCl 0 mg/mL, 35° C., 8 days
  Results of HPLC analysis, retention of the peptide content: 90.89%
pH 7.5, NaCl 1.17 mg/mL, 35° C., 8 days
  Results of HPLC analysis, retention of the peptide content: 91.88%
pH 7.5, NaCl 1.17 mg/mL, 45° C., 8 days
  Results of HPLC analysis, retention of the peptide content: 85.88%
pH 7.5, NaCl 8.77 mg/mL, 35° C., 8 days
  Results of HPLC analysis, retention of the peptide content: 92.15%
pH 7.5, NaCl 8.77 mg/mL, 45° C., 8 days
  Results of HPLC analysis, retention of the peptide content: 87.48%
pH 7.5, NaCl 29.22 mg/mL, 35° C., 8 days
  Results of HPLC analysis, retention of the peptide content: 93.74%
pH 7.5, NaCl 29.22 mg/mL, 45° C., 8 days
  Results of HPLC analysis, retention of the peptide content: 88.04%
pH value lower than about 3.5
  chemical instability: acid hydrolysis
